Patent US12679870 (US Dept. of Health and Human Services, dated 2026)

Target: T1, HMPV F v3BΔ12 (V84C/A249C, A140C/A147C, substitution of HMPV F positions 89-112 to GSGGSG) (human metapneumovirus, B2 strain …)
T1 construct: That entry starts at K20, has no tags, and differs from the v3-B backbone at positions 185 and 323; also called HMPV F v3B with the L0.1 F1/F2 linker
T1 chain: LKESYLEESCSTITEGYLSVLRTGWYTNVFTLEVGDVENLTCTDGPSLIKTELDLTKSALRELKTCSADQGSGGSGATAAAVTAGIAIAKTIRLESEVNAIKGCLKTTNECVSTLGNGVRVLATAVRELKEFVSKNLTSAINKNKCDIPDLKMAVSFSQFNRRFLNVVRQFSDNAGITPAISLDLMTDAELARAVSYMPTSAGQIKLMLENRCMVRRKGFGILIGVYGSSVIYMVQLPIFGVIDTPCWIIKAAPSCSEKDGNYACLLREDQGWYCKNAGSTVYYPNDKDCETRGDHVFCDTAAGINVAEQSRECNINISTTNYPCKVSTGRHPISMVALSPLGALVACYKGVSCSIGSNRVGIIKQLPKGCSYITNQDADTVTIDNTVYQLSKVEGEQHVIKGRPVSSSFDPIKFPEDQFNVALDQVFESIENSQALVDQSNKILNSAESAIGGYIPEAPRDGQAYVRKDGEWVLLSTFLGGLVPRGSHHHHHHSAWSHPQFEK
Assay: antigenic assessment of F1/F2 linker variants, FIG. 13

B1: MPE8 antibody (Fab, V domains shown)
VH: EVQLVESGGGLVKPGGSLRLSCAASGFTFSSYSMNWVRQAPGKGLEWVSSISASSSYSDYADSAKGRFTISRDNAKTSLFLQMNSLRAEDTAIYFCARARATGYSSITPYFDIWGQGTLVTVSS
VL: QSVVTQPPSVSGAPGQRVTISCTGSSSNIGAGYDVHWYQQLPGTAPKLLIYDNNNRPSGVPDRFSASKSGTSASLAITGLQAEDEADYYCQSYDRSLSGVFGTGTKVTVL
notes: The text calls it an antibody; also called prefusion specific antibody MPE8
- fold increase in binding compared to v1B: > 10 fold
